Laboratory results: paper doi:10.1101/2021.08.20.457040 (bioRxiv, 2021)

Experiments:
[1] = target: T1, His6-GIGYF1 GYF domain (residues 470-538) (human, UniProt O75420 470-538); assay: pull-down
T1 sequence (looked up): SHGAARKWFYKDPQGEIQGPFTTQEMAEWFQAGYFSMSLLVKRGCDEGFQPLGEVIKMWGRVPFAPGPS

[2] = target: T2, His6-GIGYF2 GYF domain (residues 529-597) (human, UniProt Q6Y7W6 529-597); assay: pull-down
T2 sequence (looked up): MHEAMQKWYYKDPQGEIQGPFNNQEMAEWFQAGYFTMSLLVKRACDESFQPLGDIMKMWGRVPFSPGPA

binding result [1]: binds
binding result [2]: binds
B1: GST-tagged fragment of the first tetra-proline region of TTP (residues 68-78) (peptide, UniProt P26651 68-78, looked up)
chain: GWVPPPPGFAP
